Reference: patent US20100260668A1 (published 2010)

B1: DVD444 (VEGF/DLL4 DVD-Ig) (bispecific antibody, human IgG1)
VH: EVQLVESGGGLVQPGGSLRLSCAASGFTISDYWIHWVRQAPGKGLEWVAGITPAGGYTYYADSVKGRFTISADTSKNTAYLQMNSLRAEDTAVYYCARFVFFLPYAMDYWGQGTLVTVSSASTKGPQVQLVQSGAEVKKPGASVKISCKASGYSFTAYYIHWVKQAPGQGLEWIGYISSYNGATNYNQKFKGRVTFTTDTSTSTAYMELRSLRSDDTAVYYCARDYDYDVGMDYWGQGTLVTVSS
VL: DIQMTQSPSSLSASVGDRVTITCRASQDVSTAVAWYQQKPGKAPKLLIYSASFLYSGVPSRFSGSGSGTDFTLTISSLQPEDFATYYCQQSYTTPPTFGQGTKVEIKRTVAAPDIVMTQSPDSLAVSLGERATISCRASESVDNYGISFMKWFQQKPGQPPKLLIYAASNQGSGVPDRFSGSGSGTDFTLTISSLQAEDVAVYYCQQSKEVPWTFGGGTKVEIKR
notes: HC linker short, LC linker short; also called DVD444H; DVD444L
B2: DVD490 (VEGF/DLL4 DVD-Ig) (bispecific antibody, human IgG1)
VH: EVQLVESGGGLVQPGGSLRLSCAASGFTISDYWIHWVRQAPGKGLEWVAGITPAGGYTYYADSVKGRFTISADTSKNTAYLQMNSLRAEDTAVYYCARFVFFLPYAMDYWGQGTLVTVSSASTKGPEVQLQQSGPELVKPGASVKMSCKASGYTFTSYVINWVKQKPGQGLEWIGLINPYNDGTKYNEKFKVKATLTSDKSSSTAYMELSSLTSEDSAVYYCASYYYGSRYYFDYWGQGTTLTVSS
VL: DIQMTQSPSSLSASVGDRVTITCRASQDVSTAVAWYQQKPGKAPKLLIYSASFLYSGVPSRFSGSGSGTDFTLTISSLQPEDFATYYCQQSYTTPPTFGQGTKVEIKRTVAAPDIQMTQSSSYLSVSLGGRVTITCKASDHINNWLAWYQQKPGNAPRLLISGATSLETGVPSRFSGSGSGKDYTLSITSLQTEDVATYYCQQYWSIPLTFGAGTKLELKR
notes: HC linker short, LC linker short; also called DVD490H; DVD490L
B3: DVD466 (VEGF/DLL4 DVD-Ig) (bispecific antibody, human IgG1)
VH: EVQLVESGGGLVQPGGSLRLSCAASGFTISDYWIHWVRQAPGKGLEWVAGITPAGGYTYYADSVKGRFTISADTSKNTAYLQMNSLRAEDTAVYYCARFVFFLPYAMDYWGQGTLVTVSSASTKGPEVQLVESGGGLVQPGGSLRLSCAASGFTFTDNWISWVRQAPGKGLEWVGYISPNSGFTYYADSVKGRFTISADTSKNTAYLQMNSLRAEDTAVYYCARDNFGGYFDYWGQGTLVTVSS
VL: DIQMTQSPSSLSASVGDRVTITCRASQDVSTAVAWYQQKPGKAPKLLIYSASFLYSGVPSRFSGSGSGTDFTLTISSLQPEDFATYYCQQSYTTPPTFGQGTKVEIKRTVAAPDIQMTQSPSSLSASVGDRVTITCRASQDVSTAVAWYQQKPGKAPKLLIYSASFLYSGVPSRFSGSGSGTDFTLTISSLQPEDFATTYYCQQSYTGTVTFGQGTKVEIKR
notes: HC linker short, LC linker short; also called DVD466H; DVD466L
B4: DVD514 (VEGF/DLL4 DVD-Ig) (bispecific antibody, human IgG1)
VH: EVQLVESGGGLVQPGGSLRLSCAASGFTISDYWIHWVRQAPGKGLEWVAGITPAGGYTYYADSVKGRFTISADTSKNTAYLQMNSLRAEDTAVYYCARFVFFLPYAMDYWGQGTLVTVSSASTKGPEVQLQQSGPELEKPGASVKISCKASGYSFTGYNMNWVKQSNGKSLEWIGNIDPYFGGTNYNQKFKGKATLTVDKSSSTAYMQLKSLTSEDSAVYYCARNYDYDGGCFDYWGQGTTLTVSS
VL: DIQMTQSPSSLSASVGDRVTITCRASQDVSTAVAWYQQKPGKAPKLLIYSASFLYSGVPSRFSGSGSGTDFTLTISSLQPEDFATYYCQQSYTTPPTFGQGTKVEIKRTVAAPQAVVTQESALTTSPGETVTLTCRSSTGAVTTSNYANWVQEKPDHLFTGLIGGTNNRAPGVPARFSGSLIGDKAALTITGAQTEDEAIYFCALWYSNHWVFGGGTKLTVLG
notes: HC linker short, LC linker short; also called DVD514H; DVD514L

Molecular target: T1, DLL4 (DLL4 ECD/His tag, R&D Systems 1506-D4-050) (UniProt Q9NR61 27-529)
T1 construct: extracellular domain; not shown: His tag
Assay: Direct bind ELISA on DLL4; DLL4 domain C-term., HC short, LC short

| EC50 | Binder |
| --- | --- |
| 30.5 nM | B1 |
| 9.27 nM | B2 |
| 19.8 nM | B3 |
| 21.1 nM | B4 |
